According to publication PMC8047169:

Assays:
[1] = target: molybdenum-iron protein (MoFeP) of Gluconacetobacter diazotrophicus Mo-nitrogenase (Gluconacetobacter diazotrophicus)
[2] = target: molybdenum-iron protein (MoFeP) of Gluconacetobacter diazotrophicus Mo-nitrogenase (Gluconacetobacter diazotrophicus); remark: listed apart in the source

nitrogenase C2H2 reduction activity under 0.1 atm CO with 2 μM CowN against no CowN (0.2 μM MoFeP, 2 μM FeP) [1]: 9 fold | KD^app from a hyperbolic fit of nitrogenase C2H2 reduction activity against CowN concentration under 0.001 atm CO (MoFeP with FeP, turnover conditions) [2]: 400 nM | KD^app from a hyperbolic fit of nitrogenase C2H2 reduction activity against CowN concentration under 0.1 atm CO (MoFeP with FeP, turnover conditions) [2]: 1080 nM
B1: His-CowN (Gluconacetobacter diazotrophicus CowN, His-tagged, refolded, monomeric fraction) (natural protein)
chain: MTEQIDRYVSFRNVEWERRTAEVFALLQPHFDGSTSPFWDYFLRQRVIAHAQGLDDLRVLHNFLPTLKDLLEELDDERTLSRLEELEVLCM
